The values that follow come from publication PMC10531703.

This assay concerns the target F10_Y11delinsLN mutant human γS-crystallin (human) (UniProt P22914).

human αA-crystallin, sequence (P02489 whole entry): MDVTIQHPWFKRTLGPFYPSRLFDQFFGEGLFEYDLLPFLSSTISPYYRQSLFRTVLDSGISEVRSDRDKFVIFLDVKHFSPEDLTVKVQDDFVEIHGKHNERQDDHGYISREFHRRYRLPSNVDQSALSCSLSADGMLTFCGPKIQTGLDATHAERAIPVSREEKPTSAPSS
F10_Y11delinsLN mutant human γS-crystallin (human), sequence (P22914 other isoform, or with tags, fused parts or gaps mutant): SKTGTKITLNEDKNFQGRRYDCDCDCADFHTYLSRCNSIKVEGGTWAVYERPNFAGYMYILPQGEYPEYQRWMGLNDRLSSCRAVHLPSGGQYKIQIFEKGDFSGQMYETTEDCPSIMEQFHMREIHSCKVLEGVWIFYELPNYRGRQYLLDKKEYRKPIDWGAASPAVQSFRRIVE

In the case of “human αA-crystallin (from UniProt P02489 1-173) (natural protein)”, the particle radius by dynamic light scattering, 30 to 60 °C; 1:1 molar ratio mixture (the mutant alone: 1063 nm radius after heating to 60 °C) stood at 13.3 nm.
